To fix the notation:
B1: CPEB3 Ribozyme (parent)
chain: UAACAGGGGGCCACAGCAGAAGCGUUCACGUCGCAGCCCCUGUCAGAUUCUGGUGAAUCUGCGAAUUCUGCUGUAUAUCUC

The variants in this data set derive from B1. In words: self-cleavage, relative activity (ratio to wild type); higher = more cleavage; in vitro, sequencing. The method in brief:
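Libraries of CPEB3 self-cleaving ribozyme mutants came from rounds of error-prone PCR and carried barcodes, which DNA sequencing matched to variants. In vitro transcription used T7 RNA polymerase at 37°C for 5 hours, with a further 15 min in DNase I before EDTA stopped the reaction; the ribozymes cleaved during both steps. The RNA was reverse transcribed with template switching and sequenced on Illumina. Relative activity is the cleaved/total read fraction of a variant divided by that of the unmutated ribozyme, averaged over three batches with at least 5 reads.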
With UAACAGGGGGCCACUGCAGAAGCGUUCACGUCGCAGCCCCUGUCAGAUGCUGGUGAAUCUGCGAAUUCUGCUGUAUAUCUC [A15U U49G], the self-cleavage is 0.36.

On to UAACAGGGGGCCACAGCAGAAGCGCUCACGUCGCAGCCCCUUUCAGAUUCUGGUGAAUCUGCGAAUUCUGCUGUAUAUCUC [U25C G42U], for which the self-cleavage amounted to 0.5. The figure for UAACAGGGGGCCACACCAGAAGCGUUCACGUCGCAGCCCCUGUCGGAUUCUGGUGAAUCUGCGAAUUCUGCUGUAUAUCUC [G16C A45G] is 0.42. The figure for UGCCAGGGGGCCACAGCAGAAGCGUUCACGUCGCAGCCCCUGUCAGAUUCUGGUGAAUCUGCGAAUUCUGCUGUAUAUCUC [A2G A3C] is 0.89; for UAACAGGGAGCCACAGCAGAAGCGUUCACGUCGCAGCCCCUGUCAGAUCCUGGUGAAUCUGCGAAUUCUGCUGUAUAUCUC [G9A U49C] it is 0.23.

As to UAACAGGGGGCCACAGCAGAAGCGUUCACGUCGCGGCCCCUGUCAGAUUCUGGUGAAUCUGCGAAUUCUGCUGUAUUUCUC [A35G A77U], the self-cleavage came out at 1.28.

Turning to UAACAGGGGGCCACAGCAGAAGCGUUCACGUCGCAGCCCCUGUCAGAUUCUGAUGAAUUUGCGAAUUCUGCUGUAUAUCUC [G53A C59U], the self-cleavage worked out at 1.07.

For the variant UAACAGGGGGCCACAGCAGAAGCGUUCACGUCGCAGCUCCUGUCAGAUUCUGGUGAAUCUGCGAAUUCUGCUGUAAAUCUC [C38U U76A], the self-cleavage was determined as 1.16. The same measure for UAACAGGGGGCCACAGCAGCAGCGUUCACGUCGCAGCCCCUGUCAGGUUCUGGUGAAUCUGCGAAUUCUGCUGUAUAUCUC [A20C A47G]: 0.45; for UAACAGGGGACCACAGCAGAAGCGUUCACGUCGCAGCCCCUGUCAGAUUCUGGUGAAUAUGCGAAUUCUGCUGUAUAUCUC [G10A C59A]: 0.06. Take UAACAGGGGGCCACAGCAGAAGCGUUCACGUCGCACCCCCUGUCAGAUUCUGGUGAAUCUCCGAAUUCUGCUGUAUAUCUC [G36C G61C]: the self-cleavage worked out at 0.14. The figure for UAACAGGGGGCCACAGCAGAAGCGUGCACGUCGCAGCCCCUGUCAGAUUCUGGAGAAUCUGCGAAUUCUGCUGUAUAUCUC [U26G U54A] is 0.19; for UAACAGGGGGCCACAGCAGAAGCGUUCACAUCGCAGCCCCUGUCAGAUUCUGGUGAAUCUGCGAAUUCUGCUGUGUAUCUC [G30A A75G] it is 0.26; for UAACAGGGGGCCACAGCAGAAGCGUUCACGUCGCAGCCCCUGUCAGAUUCUGGUGAAUCUCCGUAUUCUGCUGUAUAUCUC [G61C A64U] it is 0.32. The same measure for UAACAGGGGGCCACAGCAGAAGCGUUCACGUCGCAGCCCCUGUCAGAUUCUGGUGAAUCUGCGAAUUCUGCGAUAUAUCUC [U72G G73A]: 1.3; for UAACAGGGGGCCACAGCAGAAGUGUACACGUCGCAGCCCCUGUCAGAUUCUGGUGAAUCUGCGAAUUCUGCUGUAUAUCUC [C23U U26A]: 0.24. The same measure for UAACAGGGGGCCACAGCAGACGCGUUCACGUCGCAGCCCCUGUCAGAUUCUGGUGUAUCUGCGAAUUCUGCUGUAUAUCUC [A21C A56U]: 0.16; for UAACAGGGGGCCACAGCAGAAGCGUUCACGUCGCAGCCCCUGUCAGACUCUGGUGAAUCUGCGAAUUCUGCUCUAUAUCUC [U48C G73C]: 1.23; for UAACUGGGGGCCACAGCAGAAGCGUUCACGUCGCAGCCCCUGUCAGAUACUGGUGAAUCUGCGAAUUCUGCUGUAUAUCUC [A5U U49A]: 0.44. Take UAACAGGGGGCCACAGCAGAAGCGUUCACGUCGCACCCCCUGUCGGAUUCUGGUGAAUCUGCGAAUUCUGCUGUAUAUCUC [G36C A45G]: the self-cleavage stood at 0.17.

In the case of UAACAGGGGGCCACAGCAGAAGCGUUCACGUCGCAGCCCCUGUCAGAUUCUUGUGAAUCUGCGAAUUCUGCAGUAUAUCUC [G52U U72A], the self-cleavage was found to be 0.73. Consider UAACAGGGGGCCACUGCAGAAGCGUUCACGUCGCAGCCCCUGUCAGAUUCUGGUGAAUCUACGAAUUCUGCUGUAUAUCUC [A15U G61A], for which the self-cleavage was determined as 0.37. The same measure for UAACAGGGGGCCACUGCAGAAGCGUUCACGUCGCAGCCCCUGUUAGAUUCUGGUGAAUCUGCGAAUUCUGCUGUAUAUCUC [A15U C44U]: 0.22; for UAACAGGGGGCCGCAGCAGAAGCGUUCACGCCGCAGCCCCUGUCAGAUUCUGGUGAAUCUGCGAAUUCUGCUGUAUAUCUC [A13G U31C]: 0.45; for UAACAGGGGGCCACAGCAGAAGCGUUCACGUCGCUGCCCCUGUCAGAUUCUGGUGAAUCUGCGACUUCUGCUGUAUAUCUC [A35U A65C]: 0.45. The same measure for UAACAGGGGGCCACAGCAGAAGCGUUCACGUCGCAGCCCUUGUCAGAUUCUGGUGAAUCUGCGAUUUCUGCUGUAUAUCUC [C40U A65U]: 0.37. For UAACAGGGGGCCACAGCAGAAGCGUUCACGUCGCAGCCCCUGUCAGAUUCUGGUGAGUCGGCGAAUUCUGCUGUAUAUCUC [A57G U60G], the self-cleavage came to 0.26.

Regarding UAACAGGGGGCCACAGCAGAAGCGUUCACGUAGCAGCCCCUGUCAGAUUCUGGUGAAUCUGCGGAUUCUGCUGUAUAUCUC [C32A A64G], the self-cleavage was determined as 0.1.

Regarding UAACAGGGGGCUACAGCAGAAGCGUUCACGUCGCAGCCCCUGUCAGAUUCUGGUGAAUCUGCGAAUUCCGCUGUAUAUCUC [C12U U69C], the self-cleavage was 0.96. For the variant UAACAGGGGGCCACAGCAGAAGCGUUCACGUCGCAGCCCCCGUCAGAUUCUGGUGAAUCUGCGGAUUCUGCUGUAUAUCUC [U41C A64G], the self-cleavage amounted to 0.77. The same measure for UAACAGGGGGCCACAGCUGAAGCGUUCACGUCGCAGCCUCUGUCAGAUUCUGGUGAAUCUGCGAAUUCUGCUGUAUAUCUC [A18U C39U]: 0.3; for UAACAGGGGGCCACAGCAGAAGCGUUCACGUCGCAGCCCCUGCCAGAUUCUGGUGAAUCUGCGAAUUCUGCUGUAGAUCUC [U43C U76G]: 0.69.

Turning to UAACAGGGGGCCACAGCAGAAGCGUUCACGUCGCAGCCCCUAUCAGAUUCUGGUGAAUCUGCGAAUUCUGCUGUAUAUCUC [G42A], the self-cleavage came out at 0.34.

Take AAACAGGGGGCUACAGCAGAAGCGUUCACGUCGCAGCCCCUGUCAGAUUCUGGUGAAUCUGCGAAUUCUGCUGUAUAUCUC [U1A C12U]: the self-cleavage amounted to 1.2.

These data come from the RNAGym collection of RNA variant scans (doi:10.1093/nar/gkz1192).
